What follows are sequences tested on T1, His6-OsnR (Corynebacterium glutamicum), ORF:93dbb295 (assay: EMSA). Details: 20 mM HEPES pH 7.4, 2.5 mM MgCl2, 75 mM KCl, 0.5 mM EDTA, 2 mM DTT, 10% glycerol, 1 ug poly d(I-C), 100 ng/ul BSA; 30 ng DNA in 20 ul, 30 C, 30 min; 5% PAGE ….
T1 sequence: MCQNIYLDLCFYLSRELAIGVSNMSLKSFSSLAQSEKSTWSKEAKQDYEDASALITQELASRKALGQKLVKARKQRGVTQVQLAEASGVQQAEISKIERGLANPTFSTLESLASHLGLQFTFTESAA
For “ACCGCTTCTAAGCACCCAACTCGCCAAAACTAGGACAACAGGTCGCCGCAGACAGTCGACCGCTTAAAACGCCACACAGCACCCCACTTCACATAACCCCAAGTCGGAAACAAAAGCCCCCAACCTGCACAGATGTCAACTATTTCAACCAGCCAGAAACTATCTCCAAAAGCTAATAAAACCCTTGCACTGACAAATAAGGCGACCTACCATGACTCTGTTTCCAACACATAAAAAGGATAAAAAATGTCACTTTCAGTCGTCGAGGCG (double strand) [cg0404 promoter]”, the binding was “no binding”.
“CAAGCGTGGGGATTCCTGGCTCGATGCTCATGCTTCACTTCCTTATCTTTTGAAACCATGTGCAGCTGTTTTTCTCTTCATTTTTCTCTTCATACACTGACACAGTTCAACTCAATCAAATAGTCAACTATGCAAGGTAGTCGACTATGTGGCATAGTCGCCATAGTTGAGTTTTATTCATGGCTTTTAGCTAGGCGACTTTAGTTGAGGGCTTTTAGTTGAGGGCTTCCCAGCAGGGATGGTTAAGGAGAATTCAGTGAACCAACAGAGTAAAAAGTGGCTCGTACCGACACTGGT (double strand) [cg0026 promoter]” was tested, and the binding was “binds”.
For “GGCGAGGCCACGTTCAATCTTGCTTATTTCTGCCTGTTGGACTCCAGAAGCTTCAGCAAGTTGAACTTGGGTGACTCCTCGTTGTTTCCGAGCCTTGACTAGTTTTTGGCCAAGAGCTTTTCGTGAGGCGAGTTCTTGAGTGATTAGCGCGGAAGCGTCCTCGTAATCTTG (double strand) [osnR ORF (+110 to +286)]”, the binding was “no binding”.
“GGCTGCTCAGACATAAGATGTGCTCCTAATTTAGAAATCGGATGTGGGCTGGACTGGGAAGGCAACTAACTGGTGCTTTGTCGTCCACGTATCTCAACGCATATGACTATAAAAAGCTTCCCAAGTACCAGTTCAGTCTATAATTCGCGGTGTTATTGAGATGGTTTGAGGCTGGAAAGCTTCGATTGCAGCCAGTTGTTGAGTACTTCAGAGGCGTGATCTCTGGCGGGTTTCCTTGAGAGGAAAATATCGTGGCGAGCGTTGTCGATGAT (double strand) [mtr promoter]” was tested, and the binding was “no binding”.
In the case of “TTTGGTGGTGGGCAATGCTGCGACCATCTTTATGAATCTCATTGGCTGCCGGGAAGGCCGCGACCCCTTGCTGCTCATCGCGGTTCTCACGTTCCCGCTGTATTGGCTGCTCATGAGCATTGCAGCGTTGAAAGGCACGTGGCAATTGATCACGCGACCATCCTATTGGGAGAAAACTGCCCACGGATTGGAGGCGTAAGCGGTGCCCATCGTCAAACCAATGCCGGCACTG (double strand) [cg0165 promoter]”, the binding is reported as “binds”.

From publication PMC8524982
